Measurements from patent US7625707B2, “Antibacterial agents and methods of identifying and utilizing same” (Ramot At Tel Aviv University Ltd., priority 2003, dated 2009).

Assays:
[1] = target: T1, GST-YoeB fusion protein (Escherichia coli, UniProt P69348); experiment: Peptide array analysis of YefM tridecamer peptides probed with GST-YoeB; type: binding, E. coli
T1 construct: made in house; host or cells: E. coli BL21(DE3) pLysS
T1 sequence (P69348 1-84): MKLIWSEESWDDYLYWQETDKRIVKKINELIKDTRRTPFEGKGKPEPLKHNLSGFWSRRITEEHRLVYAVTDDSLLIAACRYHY
Method: Peptide array analysis: Tridecamer peptides corresponding to consecutive overlapping sequences of the YefM polypeptide were arrayed on a cellulose membrane matrix and covalently bound to a Whatman 50 cellulose support (Whatman). Approximately 50 μg aliquots of soluble GST-YoeB fusion were examined for their selective peptide binding ability, on the basis of YefM-YoeB putative interaction.
For low stringency binding the cellulose membrane was briefly washed in 100% ethanol, washed three times with Tris-buffered saline (TBS; 50 mM Tris-HCl pH 7.5, 150 mM NaCl), then blocked for 4 hours using 5% (w/v) non-fat milk in TBS. The membrane was then washed three times in TBS+0.1% (v/v) tween 20 (TBS-T) and incubated with 10 ml GST-YoeB solution at 4° C. and slow shaking for 14 hours.
For high stringency binding the washing steps were extensive and multiple and the blocking solution washing step was reduced to a single brief wash.
Following incubation, the membrane was washed once in TBS-T then supplemented with 10 ml suspension comprising TBS, mouse anti-GST antibody and horseradish peroxidase conjugated goat anti-mouse antibody in the appropriate titers. Following 1 hour incubation at room temperature the membrane was briefly washed with TBS-T and TBS. Bound GST-YoeB proteins were detected through an enhanced chemiluminescence reaction following an exposure to a sensitive film.

[2] = test system: E. coli TOP10; experiment: Growth rate analysis of bacteria overexpressing YefM, YoeB or both; conditions: 0.2% L-arabinose induction compared with 0.2% glucose control, LB-Amp, 37° C.
Method: (§1) The generated constructs were introduced to E. coli strain TOP10.
Growth rate analysis: E. coli TOP10 bacteria transformed with pBAD-yefM, pBAD-yoeB, and pBAD-yefMyoeB were cultured in LB broth supplemented with 100 μg/ml ampicillin (LB-Amp) and incubated at 37° C. overnight. Following incubation, cultures were diluted in fresh LB-Amp and their optical density was adjusted to approximately 0.01 (A600). Each culture was then divided into two equal volumes. One volume was supplemented with 0.2% L-arabinose to induce expression of the target gene and the second volume was supplemented with 0.2% D-glucose to suppress expression. All cultures were incubated at 37° C. and 200 rpm for up to 9 hours. Cell density was estimated periodically by optical absorbance at 600 nm. The effect of target gene induction on bacterial growth during the logarithmic growth phase was determined as described above with the exception that cultures were divided and supplemented with 0.2% L-arabinose, or 0.2% D-glucose at the time they had reached optical density of approximately 0.45 (A600).

[3] = test system: E. coli TOP10; experiment: Colony formation analysis of bacteria overexpressing YefM, YoeB or both; conditions: L-arabinose 0.0005-0.2% on LB-Amp agar, 37° C., 20 hours
Method: as §1
Colony formation analysis: E. coli TOP10 bacteria harboring pBAD-yefM, pBAD-yoeB, or pBAD-yefMyoeB, were cultured in LB-Amp and incubated at 37° C. overnight Following incubation the cultures were diluted to an A600 of 0.01 in a fresh LB-Amp and incubated at 37° C. until an absorbance of 0.5 at A600 was reached. The cultures were then diluted in ten-fold dilutions steps and applied as 5 μl droplets on LB-Amp agar plates containing L-arabinose at a concentration gradient of 0.2%, 0.1%, 0.05%, 0.02%, 0.005% and 0.0005%. An LB-Amp agar plate containing 0.2% glucose was used as a negative control. All plates were incubated at 37° C. for at least 20 hours.

[4] = Thermal denaturation monitored by CD ellipticity at 222 nm; type: physicochemical; conditions: PBS pH 7.3
Method: Circular Dichroism (CD): CD spectra were obtained by using an AVIV 202 spectrapolarimeter equipped with temperature-controlled sample holder and a 5 mm path length cuvette. Mean residual ellipticity, [θ], was calculated as, [θ]=[100×θ×m]/[c×L]
The identity of YefM and YoeB-His was verified using protein spots isolation from Coomassie blue stained gels and was accomplished by mass spectrometry, according to established protocols (Bandow, J. E., Becher, D., Buttner, K, Hochgrafe, F., Freiberg, C., Brotz, H. and Hecker, M. (2003) Proteomics. 3, 299-306). Briefly, protein spots were excised from stained gels and the gel pieces were treated trypsin solution (Pomega) for 16 h at 37° C. Peptides were extracted from gel onto a sample plate for MALDI-MS. Obtained peptides masses were determined in the positive ion reflector mode in a Voyager-DE STR mass spectrometer (Applied Biosystems). […] To determine the concentrations of YoeB-His and YefM polypeptides, tyrosine and tryptophan absorbance measurements in 0.1 M KOH were used. YefM concentration was calculated using the extinction coefficient of 2381 M^−1 cm^−1 at 293.2 nm for single tyrosine (4 tyr). YoeB-His concentration was calculated using extinction coefficient at 280 nm of 1507 M^−1 cm^−1 for single tyrosine (6 tyr) and 5377 M^−1 cm^−1 for single tryptophan (4 trp). […]

[5] = boiled 10 minutes, supernatant (FIG. 4D)

## CC[C@H](C)[C@H](NC(=O)[C@@H](NC(=O)[C@@H](N)CCCNC(=N)N)[C@@H](C)O)C(=O)N[C@@H](CO)C(=O)N[C@@H](Cc1ccc(O)cc1)C(=O)N[C@@H](CO)C(=O)N[C@@H](CCC(=O)O)C(=O)N[C@@H](C)C(=O)N[C@@H](CCCNC(=N)N)C(=O)N[C@@H](CCC(N)=O)C(=O)N[C@@H](CC(N)=O)C(=O)N[C@@H](CC(C)C)C(=O)N[C@@H](CO)C(=O)O [YefM11-23]
[1]; high stringency, single amino-acid shift between peptides (FIG. 6B)
  binding of YoeB-GST to arrayed tridecamer peptide: best binding
[1]; low stringency, two amino-acids shift between peptides (FIG. 6A)
  binding of YoeB-GST to arrayed tridecamer peptide: positively identified

B1: YoeB: E. coli toxin polypeptide, SEQ ID NO: 77 (protein, listed as Escherichia coli)
chain: T1 sequence (P69348 1-84)
[2]
  growth of bacteria overexpressing the polypeptide: substantially reduced
[3]
  bacterial colony formation on overexpression: inhibited

B2: YefM and YoeB: toxin-antitoxin pair co-overexpressed in E. coli TOP10 from pBAD-yefMyoeB (protein, UniProt P69346 1-83; P69348 1-84, looked up)
Antitoxin YefM: MRTISYSEARQNLSATMMKAVEDHAPILITRQNGEACVLMSLEEYNSLEETAYLLRSPANARRLMDSIDSLKSGKGTEKDIIE
Toxin YoeB: T1 sequence (P69348 1-84)
[2]
  growth of bacteria overexpressing the polypeptide: remained normal
[3]
  bacterial colony formation on overexpression: unaffected

B3: YoeB-His: YoeB toxin expressed in fusion to myc-epitope and his-tag (protein)
chain: T1 sequence (P69348 1-84)
modifications: left off: small tags and cut ends
[4]
  polypeptide melting point (TM): approximately 60 °C

B4: YefM: E. coli antitoxin polypeptide, 92 amino acids, SEQ ID NO: 76, natively unfolded (protein, listed as Escherichia coli)
chain: MNCTKEEIDMRTISYSEARQNLSATMMKAVEDHAPILITRQNGEACVLMSLEEYNSLEETAYLLRSPANARRLMDSIDSLKSGKGTEKDIIE
[5]
  solubility during boiling: extraordinary solubility
[2]
  growth of bacteria overexpressing the polypeptide: substantially reduced
[3]
  bacterial colony formation on overexpression: inhibited
